The record followed here is patent US20110165145A1 (published 2011).

The chains are these.
B1: M0070-H08 IgG (parental) (antibody, V domains shown)
VH: EVQLLESGGGLVQPGGSLRLSCAASGFTFSRYWMIWVRQAPGKGLEWVSSIRSSGETKYADSVKGRFTISRDNSKNTLYLQMNSLRAEDTAVYYCARGPLSDYYDSSGYYFDAFDIWGQGTMVTVSS
VL: DIQMTQSPSSLSASAGDRVTITCRASQSISSYLNWYQQKPGKAPNLLIYTTSNLQGGVPSRFSGSGSGTDFTLTISSLQPEDFATYYCQQGYSFPLTFGGGTKVEIK
B2: M0072-C06 IgG (parental) (antibody, V domains shown)
VH: EVQLLESGGGLVQPGGSLRLSCAASGFTFSAYIMTWVRQAPGKGLEWVSSISPSGGYTVYADSVKGRFTISRDNSKNTLYLQMNSLRAEDTAVYYCARDSGFGDPFDYWGQGTMVTVSS
VL: DIQMTQSPSSLSASVGDRVTITCRASQSIRNYLNWYQQKPGKAPKLLIYAASKLEDGVPSRFSGSGTGTDFTLTIRSLQPEDFASYFCQQSYSSPGITFGPGTKVEIK
B3: M0072-G06 IgG (parental) (antibody, V domains shown)
VH: EVQLLESGGGLVQPGGSLRLSCAASGFTFSEYVMWWVRQAPGKGLEWVSVISPSGGYTVYADSVKGRFTISRDNSKNTLYLQMNSLRAEDTAVYYCARDRGGATTLDYWGQGTLVTVSS
VL: DIQMTQSPSTLSASVGDRVTITCRASQTISSWLAWYQQKPGKAPKLMIYKAASLGSEVPSRFSGSGSGTEFTLTISSLQPEDFSTYYCQQYKTYPVTFGQGTRLEIK
B4: M0072-E03 IgG (parental) (antibody, V domains shown)
VH: EVQLLESGGGLVQPGGSLRLSCAASGFTFSEYEMSWVRQAPGKGLEWVSSIYSSGGWTKYTDSVKGRFTISRDNSKNTLYLQMNSLRAEDTAVYYCAKGVHYDSSGLPIDWYFDLWGRGTLVTVSS
VL: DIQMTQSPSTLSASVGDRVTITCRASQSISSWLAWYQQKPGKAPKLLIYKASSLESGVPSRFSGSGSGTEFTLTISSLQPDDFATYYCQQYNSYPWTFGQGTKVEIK
B5: M0073-C11 Fab (Fab, V domains shown)
VH: EVQLLESGGGLVQPGGSLRLSCAASGFTFSPYDMWWVRQAPGKGLEWVSSISSSGGITAYADSVKGRFTISRDNSKNTLYLQMNSLRAEDTAVYYCARAGYSSSWGYYYYGMDVWGQGTTVTVSS
VL: QSALTQPPSVSVSPGQTASITCSGDRLGDKYASWYQQKPGQSPVLVIYQDTKRPSGIPERFSGSNSGSTATLTISGTQAMDEADYYCQAWDSSTVVFGGGTKLTVL
B6: M0080-G03 Fab (Fab, V domains shown)
VH: EVQLLESGGGLVQPGGSLRLSCAASGFTFSFYQMMWVRQAPGKGLEWVSSISPSGGRTYYADSVKGRFTISRDNSKNTLYLQMNSLRAEDTAVYYCAKDIGLGYCSSTSCYTGTPLDYWGQGTLVTVSS
VL: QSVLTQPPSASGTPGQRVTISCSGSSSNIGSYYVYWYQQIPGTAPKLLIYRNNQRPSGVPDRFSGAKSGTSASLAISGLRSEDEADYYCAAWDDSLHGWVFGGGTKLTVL
B7: M0070-H08 Fab (Fab, V domains shown)
VH: B1 VH
VL: DIQMTQSPSSLSASAGDRVTITCRASQSISSYLNWYQQKPGKAPNLLIYTTSNLQGGVPSRFSGSGSGTDFTLTISSLQPEDFATYYCQQGYSFPLTFGGGTKVEIKR
notes: soluble Fab (sFab); also called R0032-A07
B8: M0072-G06 Fab (Fab, V domains shown)
VH: B3 VH
VL: DIQMTQSPSTLSASVGDRVTITCRASQTISSWLAWYQQKPGKAPKLMIYKAASLGSEVPSRFSGSGSGTEFTLTISSLQPEDFSTYYCQQYKTYPVTFGQGTRLEIKR
notes: soluble Fab (sFab); also called R0032-C05
B9: M0033-E05 Fab (Fab, V domains shown)
VH: EVQLLESGGGLVQPGGSLRLSCAASGFTFSHYSMWWVRQAPGKGLEWVSYIGPSGGHTRYADSVKGRFTISRDNSKNTLYLQMNSLRAEDTAVYYCARGLYYYDSSSVTHAFDLWGQGTMVTVSS
VL: DIQMTQSPSSLSASVGDRVTISCRASQGITNYLVWFQQKPGKAPRLLIYDASTLESGVPSRFSGSGSGTDFTLTISSLQPEDFATYYCQQADGFPLTFGEGTKVEMKR
notes: soluble Fab (sFab); also called R0032-A05
B10: M0072-E03 Fab (Fab, V domains shown)
VH: B4 VH
VL: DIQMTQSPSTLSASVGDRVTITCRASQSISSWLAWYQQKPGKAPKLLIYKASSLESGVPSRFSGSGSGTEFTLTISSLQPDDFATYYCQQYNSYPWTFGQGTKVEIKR
notes: soluble Fab (sFab); also called R0032-C03
B11: M0068-E03 Fab (Fab, V domains shown)
VH: EVQLLESGGGLVQPGGSLRLSCAASGFTFSEYVMAWVRQAPGKGLEWVSSIVSSGGYTKYADSVKGRFTISRDNSKNTLYLQMNSLRAEDTAVYYCAKDMTYSGDAFDVWGQGTMVTVSS
VL: DIQMTQSPSSLSASVGDRVTITCRASQSINTYLNWYQQKPGKAPKVLIHAASTLESGVPSRFSGSGSATEFTLTISSLQPEDFATFYCQQSYSVPFTFGPGTRLSSKR
notes: soluble Fab (sFab); heavy constant part carries His6 and myc tags; also called R0032-C01

Sequence of insulin-like growth factor I (IGF-I) (P05019 49-118 limits assumed): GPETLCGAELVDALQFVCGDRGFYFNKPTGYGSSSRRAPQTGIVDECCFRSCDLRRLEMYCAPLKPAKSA

In one test the target is T1, insulin-like growth factor II (IGF-II), amino acids 1-67 (human, UniProt P01344 25-91).
T1 construct: recombinant; also called IGF-II (67aa); IGF2
T1 sequence (P01344 25-91): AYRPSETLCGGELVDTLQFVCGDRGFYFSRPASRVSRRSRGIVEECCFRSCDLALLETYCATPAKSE
Description: SPR, IgG on Protein G', then ligand, then BP; competitor BP4; 0 = no significant competition, 5 = competes strongly. The procedure: (§1) BIACORE® T100 and a CM5 chip coated with Protein G were utilised to set up following assay. Approximately 1000 RU of Protein G′ was immobilized on a CM5 chip using standard amine chemistry immobilization method.
(§2) 4) Protein G′ surface was finally regenerated by injection of 10 mM Glycine pH 1.5-injected at 30 ul/min for 60 sec.
For B1, the competition score was determined as 2 score 0-5.

B2 had a competition score of 2 score 0-5.

As to B3, the competition score was 1 score 0-5.

With B4, the competition score came out at 4 score 0-5.

The target in a further test is T2, IGF-IIE (amino acids 1-104 of pro-IGF-II) (human, UniProt P01344 25-128).
T2 construct: Biotinylated in the selections; also called IGF-IIE (104aa)
T2 sequence (P01344 25-128): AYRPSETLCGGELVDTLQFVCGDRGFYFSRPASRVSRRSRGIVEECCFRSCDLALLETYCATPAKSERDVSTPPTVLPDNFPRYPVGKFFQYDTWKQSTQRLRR
Described as above. As to the method:
as §1, §2
In the case of B1, the competition score is 1 score 0-5.

In turn, B2 gave a competition score of 1 score 0-5.

With B3, the competition score is 1 score 0-5.

Regarding B4, the competition score turned out to be 3 score 0-5.

For a further test, the target named is T2, IGF-IIE (amino acids 1-104 of …). Description: competition SPR (BIACORE T100), affinity in solution, free ligand read on huIR-A ECD; measurement 2. As to the method: (§3) Competition SPR (BIACORE®) was performed under conditions of partially mass-transport limited conditions according to previously described methodology (Nieba et al., 1996). Approximately 16,700 relative response units (RU) of huIR-A (-exon11) ectodomain was coupled by standard amine chemistry to a BIACORE® CM5 chip sensor. Uncoated flow-cell surface was used as a reference. […] Regeneration of the surface was achieved by injection of 30 ul NaCltrate/NaCl pH 4.5. […] These Req estimates were subsequently plotted against total concentrations of Fab used and the resulting inhibition curve was utilised to calculate dissociation constant (KD).
Background: Surface plasmon resonance follows binding to a sensor surface in real time, without labels.
As usually defined, the Kd is a measure of binding affinity in units of concentration. Read a low Kd as higher affinity. Regarding B5, binding was put at a Kd of 19.1 nM.

For the molecule B6, the Kd is 21.2 nM.

In the next test the target is T1, insulin-like growth factor II (IGF-II), …. The test is described as follows: SPR (Flexchip), Fab, 2nd of duplicate.
B7 returned a Kd of 1.1 nM.

The molecule B8 gave an equilibrium dissociation constant (Kd) of 1.4 nM.

B9 came in with a Kd of 5.5 nM.

In turn, B10 registered a Kd of 0.3 nM.

The target of the next test is T2, IGF-IIE (amino acids 1-104 of …). The test is described as follows: SPR (Flexchip), Fab, 2nd of duplicate.
Turning to B7, the Kd is 0.39 nM.

Consider B8, for which the dissociation constant Kd came to 0.89 nM.

The molecule B10 displayed a Kd of 0.22 nM.

A further test deals with T1, insulin-like growth factor II (IGF-II), …. The test is described as follows: SPR (Flexchip), Fab, 1st of duplicate.
With B11, the dissociation constant Kd worked out at 0.93 nM.

B7 yielded a Kd of 3.3 nM.

For B8, the affinity, expressed as Kd, was 0.58 nM.

B10 displayed a dissociation constant Kd of 0.75 nM.

Another test addresses T2, IGF-IIE (amino acids 1-104 of …). The test is described as follows: SPR (Flexchip), Fab, 1st of duplicate.
Molecule B11 came in with a Kd of 0.66 nM.

As to B7, the affinity, expressed as Kd, was 0.36 nM.

Turning to B8, the Kd was 0.56 nM.

Regarding B9, binding was characterised by a dissociation constant (Kd) of 0.87 nM.

As to B10, the Kd is 0.096 nM.

Another test has as its target T1, insulin-like growth factor II (IGF-II), …. The test is described as follows: SPR, IgG on Protein G', then ligand, then BP; competitor BP2; 0 = no significant competition, 5 = competes strongly. As to the method:
as §1, §2
As to B1, the competition score came out at 3 score 0-5.

On to B2, for which the competition score is 3 score 0-5.

For the molecule B3, the competition score came to 2 score 0-5.

B4 came in with a competition score of 4 score 0-5.

The target in the next test is T2, IGF-IIE (amino acids 1-104 of …). The test is described as above. The procedure:
as §1, §2
Molecule B1 showed a competition score of 2 score 0-5.

As to B2, the competition score came to 2 score 0-5.

B3 displayed a competition score of 2 score 0-5.

The molecule B4 showed a competition score of 3 score 0-5.

Another test addresses insulin-like growth factor I (IGF-I) (UniProt P05019 49-118). Description: cell-based or functional assay.
Take B11: the “IGF-I stimulated Ba/F3 cell proliferation, sFab at 50 µg/ml” value was roughly 30 % inhibition.

In the case of B8, the “IGF-I stimulated Ba/F3 cell proliferation, sFab at 50 µg/ml” value is roughly 30 % inhibition.

As to B10, the “IGF-I stimulated Ba/F3 cell proliferation, sFab at 50 µg/ml” value is roughly 30 % inhibition.

In the next test the target is T1, insulin-like growth factor II (IGF-II), …. Description: cell-based or functional assay.
As for B11, the “IC50, IGF-II stimulated Ba/F3 cell proliferation (MTS)” value came to 2.27 µg/mL.

B8: the “IC50, IGF-II stimulated Ba/F3 cell proliferation (MTS)” value was 8.7 µg/mL.

Another test addresses T2, IGF-IIE (amino acids 1-104 of …). The test is described as follows: cell-based or functional assay.
Consider B11, for which the “IC50, IGF-IIE stimulated Ba/F3 cell proliferation (MTS)” value amounted to 5.74 µg/mL.

For the molecule B8, the “IC50, IGF-IIE stimulated Ba/F3 cell proliferation (MTS)” value is 2.5 µg/mL.

For a further test, the target named is T1, insulin-like growth factor II (IGF-II), …. Description: competition SPR (BIACORE T100), affinity in solution, free ligand read on huIR-A ECD; measurement 1. As to the method: as §3
For B7, the equilibrium dissociation constant (Kd) was 3.24 nM.

In turn, B8 gave a dissociation constant (Kd) of 3.99 nM.

In the case of B10, the affinity, expressed as Kd, was 2.62 nM.

The target of a further test is T2, IGF-IIE (amino acids 1-104 of …). The test is described as above. The procedure: as §3
Molecule B5 showed a Kd of 20.2 nM.

With B7, the dissociation constant (Kd) was 4.83 nM.

The molecule B8 returned a Kd of 6.36 nM.

Regarding B10, binding was characterised by a dissociation constant (Kd) of 5.32 nM.

In turn, B6 yielded a Kd of 29.3 nM.
